Assay results as given in the DeepSol protein solubility set.

Experiment: soluble on expression in E. coli; label from the status in PepcDB or PDB records

Sequence	soluble on expression in E. coli
ADPVMLEVFNNLFMSIAEQMGYRLQNTAYSVNIKERLDFSCAIFDAAGNLIANAPHMPVHLGSMGESIKTVMRANASRMRPGDAYVVNDPYHGGTHLPDVTVITPVFDRAGRDILFFVGSRGHHADIGGTTPGSMPPDSRTVEDEGVLFTNFQLVGNGEFRDREAREILASGRWPARNPDQNIADLHAQIAANEKGVQELLRMCDHFGLDVVRAYMGHVQDNAEEAVRRVISVLKDGRYTYRLDNGAVIEVAVRVDRQARSAVVDFTGTSGQLENNFNAPGAIAVAAVLYVFRTLVDDEIPLNAGCLKPLEIIIPEGSMLRPNPPASVVAGNVETSMCIVNALYGALGVLAASQGTMNNFTFGNARYQYYETISGGTGAGPLRIDAAGPADAGFAGTSVVQAHMTNSRLTDPEVLELRFPVRLESYEIRHGSGGAGRYRGGDGGVRRVRFLEPMTAAILSNNRRHVPFGLAGGGAGAMGRNYVERADGRVEPLGPQDSAELAAGDVFVVETPGGGDYGPA	not soluble
MGSDKIHHHHHHMAAIGSYNITLLNRESIKENAAYPIADNVEVIALSGSLFEFYKKLKKQISSNNYDVVVVHNMGKLSLLCAFVPNIKKLVVLEHVSFISRPKKIQILSKFLYRNIDQVVTLTQNDKEQFDKFHSNVIVIPNFSPFSIASQPQNNGKQIVTIGRLTDQKNYIHLLQAWKKIYQSIPDWQLNIYGEGEQEEMLQDYIKQQSLKNVSLKGSTSNVKEVYEQSSFFVMSSKYEGLPMVLIEAQSFGLPIVSYNCPYGPSDVIRDSKNGFLVEDQNVDELAAAVLKVALSPQLLEQFSQSSLLNAKKYQPEQILKIWIEKVLEG	not soluble
MGSDKIHHHHHHMDTFHLMKVYIAVAEEQGFSAASRRLNMSAPTVTRAVAHLEETLKVKLLNRTTRYVRMTEAGARYLEDAKRILHDVKVANEAALGINATPQGKISVTAPVLFGQQFVLPTITDYLVRYPQTQVNAVFLDRVVNLLEEGHDVGIRIGELHDSSMRAKKVGNVRLILVASPEYLAKNGIPKNCQELAQHTLIAANTGSLNPDWQFLVNKKNQTIKINPRLTVTTNQAAINAAKNGLGITRIISYQVAEELKNNKLKILLENFEYPAKPINIVHREDKFSSAKVRSFIDLLAENLQTNSALN	not soluble
MGSDKIHHHHHHMVIKNIDAATVAKKFLVRGYNIDPKAAELICKSGLFSDELVDKICRIANGGFIIEKSVVEEFLRNLSNLKPATLTPRPEERKVEEVKASCIALKVIKDITGKSSCQGNVEDFLMYFNSRLEKLSRIIRSRVNTTPIAHAGKVRGNVSVVGMVNEVYERGDKCYIRLEDTTGTITCVATGKNAEVARELLGDEVIGVTGLLKGSSLYANRIVFPDVPINGNGEKKRDFYIVFLSDTHFGSKEFLEKEWEMFVRWLKGEVGGKKSQNLAEKVKYIVIAGDIVDGIGVYPGQEDDLAISDIYGQYEFAASHLDEIPKEIKIIVSPGNHDAVRQAEPQPAFEGEIRSLFPKNVEHVGNPAYVDIEGVKVLIYHGRSIDDIISKIPRLSYDEPQKVMEELLKRRHLSPIYGGRTPLAPEREDYLVIEDVPDILHCGHIHTYGTGFYRGVFMVNSSTWQAQTEFQKKVNLNPMPGNVAVYRPGGEVIRLRFYGE	not soluble
MGSDKIHHHHHHMPAFPLNAWYAAAWDADIKHALFPRTICGKHVVMYRKADGTVAALEDACWHRLVPLSKGRLEGDTVVCGYHGLKFNPQGRCTYMPSQETINPSACVRSYPVVERHRFVWLWMGDPVLADPALVPDMHWNDDPAWAGDGKTIYAKCDWRLVVDNLMDLTHETYVHGSSIGNEAVAEAPFDVTHGDRTVTVTRWMKGIEPPPFWAAQLGKPGLVDRWQIIRFEAPGTVTIDVGVAPAGTRAPEGDRSQGVNGFVLNTMTPETDTTCHYFWAFVRNYRLSEQRLTTEIREGVSGIFREDEIILEAQQRAMLENPDRVFYNLNIDAGAMWSRKLIDRMVAQESAPKLQAAE	not soluble
MLTPERHQMILQLVKEQKVVKLQQLVERTESSESTIRRDLAQLEKQRLLKRVHGGAAVLTGKGQEPTMVEKSSKNIQIKQQIAKYAASVIEQGDCIYLDAGSTTFEMIPFLINKDVTVVTNGLMHIEALVENNIRAYLLGGMMKSRTKALIGAMAQESMQKYRFDKCFLGANGVHEQLGFTTPDPEEALLKQMALTLANEGYFLIDESKFSEVAFAKIANVEDANIITNHLEIDLEKYKQQTNVIEADKQLEHHHHHH	soluble
MGSDKIHHHHHHMINTKNLNVFYNENKVLKDIQLEVIPGRITGIIGPNGAGKSTLIKAILNIVPHSGEILINGEVSKKQLKKIAYVEQKSDIDHTFPIKVKECVSLGTYTGLKLFQKLGAKEWSRVSEALQKVNLLDYENRQIGELSGGQFQRVLLARCLVQEADYIFLDEPFVGIDSISEKIIMDILQDLKHQGKTILIVHHDLSKVKEYFDDIIILNRELIAYGPINENFSQKNLKKAYGDNIFIGD	not soluble
AIADEEEEISVVQDMAYDYSGKRLATVSIDREICIWNKKDDWQRTYQWKAHEGPLFGVSWAHPCFGNILATGSYDKRVIIWEEPEASSSYSSSSMDKSTKGWTALAHLVDARDEVRQVQFAPPHLGLLLASGSADGYVRIYTCIDEADLHQWPLLTELDMDSPVVGMSWNPSVDSIPLIVVASHKDCRVWSMDNDTRRWTDWHLFRTSESDTADLSAVAWAPHVGRSFERIALGCEDGSILLFQFPRIQQGNKTNGHEMQPICRLNHGNERIVRLQWNMVGSILASSASDRMVRLWKALPQDGTRWNCFDVVHLNE	soluble
MGSDKIHHHHHHMPSDASRRLYERLGIPLLPMDSPFGPEYPIGNKFAALALGPAVGHTLFLDSDMICVDAFEADMLCRFDAALKPADMALVAKQNDYWERIYAHAGSALPGDRVVTTCSGEAMPAYYNAGFILVRDARRFAEVWYRLAERVHADPLITNKMPWLDQLTLPVALHALNYKTRALSERFNYPLHIKPLSAASLPPFFCHYHSLDTLVSERSLWAELDELAKRFPELREVLALDANWKKAILAPAPRLAFSEGDSTGTVEAGQDLVITGIPRSGTSHLCRLLSQQPDTVVLNEPPQVFEALKLSPLPWGLPRYYAELRRDILAGRPVPNKHVNGRLVDDTARGNDQSSDYFAEVRGASFHLGTKNTLAYIARLPLIRKVMPTALLIATIRHPYDTLNSWANTFEHLRQAAVERQPFGCPDDLALTGWQRKALLAIADTDHLAVRRALWWRYLALQLEDAGDYVQLLRYEDFVEAPQTTLAALRNNRPLPFDEPAVWSKGLAPDEQELVANIVCDVAERFHYVL	not soluble
MTDRLIIQGGKKLSGTLQVDGAKNSAVALIPAAILAESEVVLEGLPDISDVYTLYDILEELGGSVRYDNKTAIIDPTDMLSMPLPSGNVKKLRASYYLMGAMLGRFKKAVIGLPGGCYLGPRPIDQHIKGFEALGAKVTNEQGAIYLRADELKGARIYLDVVSVGATINIMLAAVRAKGKTVIENAAKEPEIIDVATLLTNMGAIIKGAGTDTIRITGVDHLHGCHHTIIPDRIEAGTFMVLAAASGKGIRIENVIPTHLEGIIAKLTEMGVPMDIEEDSIFIGEVENIKKVDIKTYAYPGFPTDLQQPLTALLTRAEGSSVITDTIYPSRFKHIAELERMGGKFKLEGRSAVISGPAKLQGSKVTATDLRAGAALVIAGLLAEGRTEIHGVEHIERGYSKIIEKLSAIGADITRSSTAETNI	not soluble
MKSHQFSTALCQNTTESNGQPLRFPSPAKLNLFLYINGKFPNGYHELQTLFQFLDFGDWLDISIREQDNQIVLTPEIPNLKTENNLIYRAAKLLQEKANIQLGANIHLDKILPMGGGVGGGSSNAATALVSLNYLWQANLSIDELAKLGLTLGADVPIFVHGHAAFAEGVGEKITYCEPAEKWFVILKPDDSISTAVIFQDPNLPRNTPKKSLAQLLSEPYKNDCEKVVINHYSNVEKALNWLLQYAPARLTGTGACVFAEFDHEAEAQAVFRQKPEAFFGFVAKGLNVSPLHAMLKQLSSTHTHRQSKPEVLLEHHHHHH	soluble
EFRKLGEVCESTNKKTLKISEVSEVKNKGMYPVINSGRDLYGYYHDFNNDGENITIASRGEYAGFINYFNEKFFAGGLCYPYKVKDTNELLTKFLYFYLKTNEIQIMENLVFRGSIPALNKADIETLTIPIPPLEIQQEIVKILDQFSA	not soluble
PVNDEVEAVKNMHLIGQSQVAFREWNQKWVDLSLNSFADIENNLFEAEGYNHSFRFLKASHQIDQIESQITLIEEDIAAIRNALADLEKQESKNSGRVLHALDLFEELQHRVAENSEQYGQALDEIEKQLENIQSEFSQFVTLNSSGDPVEAAVILDNTENHILALSHIVDRVPALVTTLSTELPDQLQDLEAGYRKLIDANYHFVETDIEARFHLLYEAFKKNQENIRQLELDNAEYENGQAQEEINALYDIFTREIAAQKVVENLLATLPTYLQHMKENNTLLGEDIARLNKTYLLPETAASHVRRIQTELESFEAAIVEVTSNQEEPTQAYSVLEENLEDLQTQLKDIEDEQISVSERLTQIEKDDINARQKANVYVNRLHTIKRYMEKRNLPGIPQTFLKLFFTASNNTEDLMVELEQKMINIESVTRVLEIATNDMEALETETYNIVQYATLTEQLLQYSNRYRSFDERIQEAFNEALDIFEKEFDYHASFDKISQALEVAEPGVTNRFVTSYEKTRETI	not soluble
MTETTHVTSCPLNCWDVCGLKVTVNEGKVVRVDGDEHHPITKGNICGRGRMLKERVNAKERLLYPLKKVNGQFVRISWEEALDDIAGKMRKLKEQFGPTAVLHSHDYANNGLLKNLDRRFFNCYGGATELIGSLCWGAGIEAQTWDFGNAYSHAPEDIDNSRHIVIWGRNVARTNMHLFERLLAAKKRGATIVVIDPLFGPTARIADQYVCIKPGMDAFLAMGIMKELLRLGLEDRAFIKQHTIGFDDVKQLLQTISLAEIERHTGVSRDQMTKLARLYGDRPTATYLGLGMQRYANGGNTIRWIDALVAASGNVGIPGGGANFGNLQVGECFDKAALTLPERKTASRTWTMMKQGEEILRADDPPIGMVIVTCGNPLAQVPNTNLMKKAFASIETVVVFEQFMTDTAAMADYVLPVAASFEEEDVYCSSMYHAYLNYGPKLVDPPGEAKPDLWIWTELAKRLGFGDDFAYTREQFLAMALRPLEHHGITLKRLKTEHRVLLPVEPVPWRDRRFQTPSGKYEFTSTIAKKKGMDGRLQIMYPAESEESNPALAAKYPYRLLTIHPLRSNHSQHYPLIPALQTVRIEVAADVAAAKGLADGDRARVYNDRGSLVGTVKVLDGAYPGTINIDEGQWGVFGGPVNVLTSDLESDNGCGSALYDCLVNIEKVTSEAK	soluble
MASQVSQMPSSSPLSSNKDEMRPKADFQPSIWGDLFLNCPDKNIDAETEKRHQQLKEEVRKMIVAPMANSTQKLAFIDSVQRLGVSYHFTKEIEDELENIYHNNNDAENDLYTTSIRFRLLREHGYNVSCDVFNKFKDEQGNFKSSVTSDVRGLLELYQASYLRVHGEDILDEAISFTTHHLSLAVASLDHPLSEEVSHALKQSIRRGLPRVEARHYLSVYQDIESHNKALLEFAKIDFNMLQFLHRKELSEICRWWKDLDFQRKLPYARDRVVEGYFWISGVYFEPQYSLGRKMLTKVIAMASIVDDTYDSYATYEELIPYTNAIERWDIKCIDEIPEYMKPSYKALLDVYEEMVQLVAEHGRQYRVEYAKNAMIRLAQSYLVEAKWTLQNYKPSFEEFKANALPTCGYAMLAITSFVGMGDIVTPETFKWAASDPKIIQASTIICRFMDDVAEHKFKHRREDDCSAIECYMEEYGVTAQEAYDVFNKHVESAWKDLNQEFLKPTEMPTEVLNRSLNLARVMDVLYREGDGYTYVGKAAKGGITSLLIEPIAL	soluble
MGTVMDVLKGDNRFSMLVAAIQSAGLTETLNREGVYTVFAPTNEAFRALPPRERSRLLGDAKELANILKYHIGDEILVSGGIGALVRLKSLQGDKLEVSLKNNVVSVNKEPVAEPDIMATNGVVHVITNVLQP	soluble
